Assay results taken from patent US20110045489A1, “Polymerases for Incorporating Modified Nucleotides” (NEW ENGLAND BIOLABS, INC., priority 2008, published 2011).
Numbering of substitutions follows the chain as printed. In names and notes the source's numbering stands. Blank lines part the entries; values can stand above or below the molecule they belong to.

Tested on: modified nucleotide
Experiment: Screen of DNA polymerase mutants for modified nucleotide incorporation
Assay type: biochemical
From the text: In order to determine the extent of 3′-modified nucleotide incorporation by archaeon DNA polymerases, the titration assay described by Gardner and Jack (2002) was used. In this assay, the efficiency of incorporation of chain terminators was judged by the size of the reaction products in a polymerization reaction. As the efficiency of chain-terminator incorporation increased, the average reaction product size decreased because polymerization was more often halted by terminator addition. By comparing the amount of terminator required to give the same spectrum of reaction products, the relative efficiency of incorporation of the test compounds with the different polymerases was determined.
A complex library of 9° N DNA polymerase mutants was screened for enhanced incorporation of 3′-azido-ddCTP. Several classes of 9° N DNA polymerase mutants were identified with enhanced terminator incorporation. 9° N exo-L408S/Y409A/P410V (Therminator III™, NEB, Inc., Ipswich, Mass.) was purified and characterized in more detail. 9° N DNA polymerase single mutants P410V, L408S, and Y409A and double mutants L408S/P410V, L408S/Y409A, and Y409A/P410V were also purified for comparison. Purification and characterization of DNA polymerase mutants was as described in Gardner and Jack, Nucleic Acids Res. 27:2545-2553 (1999).
A library of 9° N DNA polymerase mutants was constructed by PCR amplification of the polymerase genes using gene-specific primers or codon optimization and gene synthesis Czar et al. Trends Biotechnol 27(2): 63-72 (2009)). The ability to incorporate 3′-modified nucleotide terminators was evaluated by the titration assay for chain terminator incorporation efficiency as described by Gardner and Jack (2002).
Furthermore, the same assay was used to measure 3′-amino-ddCTP incorporation by 9° N exo-L408S/Y409A/P410V (FIG. 3) and to measure rates of incorporation (FIG. 4). Examples of mutants that increased modified nucleotide incorporation by at least two-fold were: […]

increase of modified nucleotide incorporation: at least two-fold
B1: 9° N D141A/E143A/R406E/L408G: 9° N DNA polymerase mutant (protein, UniProt Q56366 1-775, looked up, variant D141A E143A R406E L408G)
DNA polymerase: MILDTDYITENGKPVIRVFKKENGEFKIEYDRTFEPYFYALLKDDSAIEDVKKVTAKRHGTVVKVKRAEKVQKKFLGRPIEVWKLYFNHPQDVPAIRDRIRAHPAVVDIYEYDIPFAKRYLIDKGLIPMEGDEELTMLAFAIATLYHEGEEFGTGPILMISYADGSEARVITWKKIDLPYVDVVSTEKEMIKRFLRVVREKDPDVLITYNGDNFDFAYLKKRCEELGIKFTLGRDGSEPKIQRMGDRFAVEVKGRIHFDLYPVIRRTINLPTYTLEAVYEAVFGKPKEKVYAEEIAQAWESGEGLERVARYSMEDAKVTYELGREFFPMEAQLSRLIGQSLWDVSRSSTGNLVEWFLLRKAYKRNELAPNKPDERELARRRGGYAGGYVKEPERGLWDNIVYLDFESGYPSIIITHNVSPDTLNREGCKEYDVAPEVGHKFCKDFPGFIPSLLGDLLEERQKIKRKMKATVDPLEKKLLDYRQRAIKILANSFYGYYGYAKARWYCKECAESVTAWGREYIEMVIRELEEKFGFKVLYADTDGLHATIPGADAETVKKKAKEFLKYINPKLPGLLELEYEGFYVRGFFVTKKKYAVIDEEGKITTRGLEIVRRDWSEIAKETQARVLEAILKHGDVEEAVRIVKEVTEKLSKYEVPPEKLVIHEQITRDLRDYKATGPHVAVAKRLAARGVKIRPGTVISYIVLKGSGRIGDRAIPADEFDPTKHRYDAEYYIENQVLPAVERILKAFGYRKEDLRYQKTKQVGLGAWLKVKGKK

increase of modified nucleotide incorporation: at least two-fold
B2: 9° N D141A/E143A/Y409A/R406V/L408Y: 9° N DNA polymerase mutant (protein, UniProt Q56366 1-775, looked up, variant D141A E143A Y409A R406V L408Y)
DNA polymerase: B1 DNA polymerase with E406V, G408Y, Y409A

increase of modified nucleotide incorporation: at least two-fold
B3: 9° N D141A/E143A/Y409A/R406S/L408K: 9° N DNA polymerase mutant (protein, UniProt Q56366 1-775, looked up, variant D141A E143A Y409A R406S L408K)
DNA polymerase: B1 DNA polymerase with E406S, G408K, Y409A

increase of modified nucleotide incorporation: at least two-fold
B4: 9° N D141A/E143A/Y409A/R406V/A485L: 9° N DNA polymerase mutant (protein, UniProt Q56366 1-775, looked up, variant D141A E143A Y409A R406V A485L)
DNA polymerase: B1 DNA polymerase with E406V, G408L, Y409A, A485L

increase of modified nucleotide incorporation: at least two-fold
B5: 9° N D141A/E143A/Y409A/R406L/L408G: 9° N DNA polymerase mutant (protein, UniProt Q56366 1-775, looked up, variant D141A E143A Y409A R406L L408G)
DNA polymerase: B1 DNA polymerase with E406L, Y409A

increase of modified nucleotide incorporation: at least two-fold
B6: 9° N D141A/E143A/Y409A/R406P/L408C: 9° N DNA polymerase mutant (protein, UniProt Q56366 1-775, looked up, variant D141A E143A Y409A R406P L408C)
DNA polymerase: B1 DNA polymerase with E406P, G408C, Y409A

increase of modified nucleotide incorporation: at least two-fold
B7: 9° N D141A/E143A/Y409A/S411T: 9° N DNA polymerase mutant (protein, UniProt Q56366 1-775, looked up, variant D141A E143A Y409A S411T)
DNA polymerase: B1 DNA polymerase with E406R, G408L, Y409A, S411T

increase of modified nucleotide incorporation: at least two-fold
B8: 9° N D141A/E143A/Y409A/R406T/L408R: 9° N DNA polymerase mutant (protein, UniProt Q56366 1-775, looked up, variant D141A E143A Y409A R406T L408R)
DNA polymerase: B1 DNA polymerase with E406T, G408R, Y409A

increase of modified nucleotide incorporation: at least two-fold
B9: 9° N D141A/E143A/L408P/Y409A/P410V/S411T: 9° N DNA polymerase mutant (protein, UniProt Q56366 1-775, looked up, variant D141A E143A L408P Y409A P410V S411T)
DNA polymerase: B1 DNA polymerase with E406R, G408P, Y409A, P410V, S411T

increase of modified nucleotide incorporation: at least two-fold
B10: 9° N D141A/E143A/Y409A/R406H/L408G: 9° N DNA polymerase mutant (protein, UniProt Q56366 1-775, looked up, variant D141A E143A Y409A R406H L408G)
DNA polymerase: B1 DNA polymerase with E406H, Y409A

increase of modified nucleotide incorporation: at least two-fold
B11: 9° N D141A/E143A/Y409A/R406Y/L408G: 9° N DNA polymerase mutant (protein, UniProt Q56366 1-775, looked up, variant D141A E143A Y409A R406Y L408G)
DNA polymerase: B1 DNA polymerase with E406Y, Y409A

increase of modified nucleotide incorporation: at least two-fold
B12: 9° N exo-P410V: 9° N DNA polymerase mutant (protein, UniProt Q56366 1-775, looked up, variant D141A E143A P410V)
DNA polymerase: B1 DNA polymerase with E406R, G408L, P410V

increase of modified nucleotide incorporation: at least two-fold
B13: 9° N D141A/E143A/Y409A/R406V: 9° N DNA polymerase mutant (protein, UniProt Q56366 1-775, looked up, variant D141A E143A Y409A R406V)
DNA polymerase: B1 DNA polymerase with E406V, G408L, Y409A

increase of modified nucleotide incorporation: at least two-fold
B14: 9° N D141A/E143A/Y409A/R406T/L408K: 9° N DNA polymerase mutant (protein, UniProt Q56366 1-775, looked up, variant D141A E143A Y409A R406T L408K)
DNA polymerase: B1 DNA polymerase with E406T, G408K, Y409A

increase of modified nucleotide incorporation: at least two-fold
B15: 9° N D141A/E143A/Y409A/P410R/S411T: 9° N DNA polymerase mutant (protein, UniProt Q56366 1-775, looked up, variant D141A E143A Y409A P410R S411T)
DNA polymerase: B1 DNA polymerase with E406R, G408L, Y409A, P410R, S411T

increase of modified nucleotide incorporation: at least two-fold
B16: 9° N D141A/E143A/L408S/Y409A/P410V/S411T: 9° N DNA polymerase mutant (protein, UniProt Q56366 1-775, looked up, variant D141A E143A L408S Y409A P410V S411T)
DNA polymerase: B1 DNA polymerase with E406R, G408S, Y409A, P410V, S411T

increase of modified nucleotide incorporation: at least two-fold
B17: 9° N D141A/E143A/Y409A/R406S/L408I: 9° N DNA polymerase mutant (protein, UniProt Q56366 1-775, looked up, variant D141A E143A Y409A R406S L408I)
DNA polymerase: B1 DNA polymerase with E406S, G408I, Y409A

increase of modified nucleotide incorporation: at least two-fold
B18: 9° N D141A/E143A/Y409A/R406S/L408R: 9° N DNA polymerase mutant (protein, UniProt Q56366 1-775, looked up, variant D141A E143A Y409A R406S L408R)
DNA polymerase: B1 DNA polymerase with E406S, G408R, Y409A

increase of modified nucleotide incorporation: at least two-fold
B19: 9° N D141A/E143A/R406P/L408G: 9° N DNA polymerase mutant (protein, UniProt Q56366 1-775, looked up, variant D141A E143A R406P L408G)
DNA polymerase: B1 DNA polymerase with E406P

increase of modified nucleotide incorporation: at least two-fold
B20: Mma D153A/E155A/L417S/P419V: Methanococcus maripaludis DNA polymerase mutant (protein)
chain: MESLIDLDYNSDDLCIYLYLINSIIKEKDFKPYFYVNSTDKEQILEFLKDYEKKHKLDSEISKMIENIETVKKIVFDENYQEKELSKVTVKYPNNVKTVREILMEFERLYEYDIPFVRRYLIDNSVIPTSTWDFENNKKIDNKIPDFKTVSFAIAVYCNKEPNPKKDPIIMASFSSKDFNTVVSTKKFDHEKLEYVKDEKELIKRIIEILKEYDIIYTYNGDNFDFPYLKKRAESFGLELKLGKNDEKIKITKGGMNSKSYIPGRVHIDLYPIARRLLNLTKYRLENVTEALFDVKKVDVGHENIPKMWDNLDETLVEYSHQDAYYTQRIGEQFLPLEIMFSRVVNQSLYDINRMSSSQMVEYLLLKNSYKMGVIAPNRPSGKEYQKRIRSSYEGGYVKEPLKGIHEDIVSMDFLSSYVSIIMSHNLSPETIDCTCCSDEENGENEEILGHKFCKKSIGIIPKTLMDLINRRKKVKKVLREKAEKGEFDEEYQILDYEQRSIKVLANSHYGYLAFPMARWYSRDCAEITTHLGRQYIQKTIEEAENFGFKVIYADTDGFYSKWADDKEKLSKYELLEKTREFLKNINNTLPGEMELEFEGYFKRGIFVTKKKYALIDENEKITVKGLEVVRRDWSNVSKNTQKNVLNALLKEGSVENAKKVIQDTIKELKDGKVNNEDLLIHTQLTKRIEDYKTTAPHVEVAKKILKSGNRVNTGDVISYIITSGNKSISERAEILENAKNYDTNYYIENQILPPVIRLMEALGITKDELKDSKKQYTLHHFLK
